Assay results from patent US20050118611, “Thioaptamers enable discovery of physiological pathways and new therapeutic strategies” (Board Of Regents, The University of Texas System, published 2005).

Target: NF-κB p65 (RelA) homodimer (UniProt Q04206 Q04206:1-551)
Assay: competition; inhibition/binding similar to unsubstituted aptamer; 32P IgκB competition
Conditions: protein: NAME; chain copies: 2 (stated)
Procedure: As the substitutions of dithiophosphate were increased, binding by the [S₂]-ODN oligonucleotide increased dramatically. For example, in a standard competitive binding assay, ³²P IgκB promoter element ODN is incubated with recombinant p65 and varying amounts of XBY aptamer competitor. The relative binding ability of the unlabeled ODNs is determined by the concentration needed to effectively compete with the standard labeled ODN. XBY1 through 6 correspond to CK-14 aptamers with 1 through 6 dithiophosphate substitutions, respectively. The present inventors, according to an embodiment of this invention, developed an oligonucleotide containing six dithioate linkages on the two strands, termed XBY-6. Unlike the fully substituted [S]-ODN CK-14, the XBY-6 hybrid backbone [S₂]-ODN aptamers bound more tightly to p50/p50 (5-fold) than to the p65 homodimer.

NF-κB p65 (RelA) homodimer, sequence (Q04206 whole entry, one chain of several): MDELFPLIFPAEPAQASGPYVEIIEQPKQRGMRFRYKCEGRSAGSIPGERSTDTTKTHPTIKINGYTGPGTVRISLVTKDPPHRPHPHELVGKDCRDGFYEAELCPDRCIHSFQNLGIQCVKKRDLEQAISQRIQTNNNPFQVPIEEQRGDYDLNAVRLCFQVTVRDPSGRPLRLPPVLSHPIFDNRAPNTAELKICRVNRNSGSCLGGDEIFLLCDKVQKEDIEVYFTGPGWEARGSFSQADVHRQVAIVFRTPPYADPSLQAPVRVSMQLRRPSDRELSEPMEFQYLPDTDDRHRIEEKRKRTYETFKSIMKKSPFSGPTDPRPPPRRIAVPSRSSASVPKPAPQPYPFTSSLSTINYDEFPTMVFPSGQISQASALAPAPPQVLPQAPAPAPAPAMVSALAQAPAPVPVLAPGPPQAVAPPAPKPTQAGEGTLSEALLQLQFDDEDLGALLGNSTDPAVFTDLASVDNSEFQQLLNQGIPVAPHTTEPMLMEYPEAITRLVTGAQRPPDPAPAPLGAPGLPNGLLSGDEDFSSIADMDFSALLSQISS

B1: CK-14 with one or two dithioate linkages (XBY1, XBY2) (dsDNA)
DNA 1: CCAGGAGATTCCAC
DNA 2: GTGGAATCTCCTGG
modifications: 1 or 2 phosphorodithioates, positions not given
binding signal: ~1 fold vs unsubstituted
